Experiment [1] concerns the target human PDX-1/IPF-1 mutant P63fsdelC, [35S]-radiolabeled in vitro translated (human) (UniProt P52945). Nature of the experiment: GST pull-down with [35S]-labelled human PDX-1 proteins; reference is wild-type human PDX-1.
Experiment [2] addresses p300 (full-length histone acetyltransferase and nuclear receptor coactivator) (UniProt Q09472). Briefly: cell-based or functional assay.
Experiment [3] deals with Gal4-PDX-1 (Gal4 fusion protein of PDX-1) (UniProt P04386). Nature of the experiment: cell-based or functional assay.
Experiment [4] has as its target T1, LexA-rat PDX-1 bait fusion protein (PDX-1 amino acids 160-283) (rat, UniProt P52947 160-283).
T1 construct: range 160-283; also called carboxy-terminal PDX-1 protein fragment; not shown: LexA moiety encoded by the yeast bait vector pEG202
Nature of the experiment: yeast two-hybrid interaction trap; - means no growth on leucine dropout plates and white colonies on X-gal plates.

Experiment [5] concerns the target T2, GST-p300 (1572-2370) (UniProt Q09472 1572-2370).
T2 construct: also called carboxy-terminal segment of p300; not shown: glutathione S-transferase
T2 sequence (looked up): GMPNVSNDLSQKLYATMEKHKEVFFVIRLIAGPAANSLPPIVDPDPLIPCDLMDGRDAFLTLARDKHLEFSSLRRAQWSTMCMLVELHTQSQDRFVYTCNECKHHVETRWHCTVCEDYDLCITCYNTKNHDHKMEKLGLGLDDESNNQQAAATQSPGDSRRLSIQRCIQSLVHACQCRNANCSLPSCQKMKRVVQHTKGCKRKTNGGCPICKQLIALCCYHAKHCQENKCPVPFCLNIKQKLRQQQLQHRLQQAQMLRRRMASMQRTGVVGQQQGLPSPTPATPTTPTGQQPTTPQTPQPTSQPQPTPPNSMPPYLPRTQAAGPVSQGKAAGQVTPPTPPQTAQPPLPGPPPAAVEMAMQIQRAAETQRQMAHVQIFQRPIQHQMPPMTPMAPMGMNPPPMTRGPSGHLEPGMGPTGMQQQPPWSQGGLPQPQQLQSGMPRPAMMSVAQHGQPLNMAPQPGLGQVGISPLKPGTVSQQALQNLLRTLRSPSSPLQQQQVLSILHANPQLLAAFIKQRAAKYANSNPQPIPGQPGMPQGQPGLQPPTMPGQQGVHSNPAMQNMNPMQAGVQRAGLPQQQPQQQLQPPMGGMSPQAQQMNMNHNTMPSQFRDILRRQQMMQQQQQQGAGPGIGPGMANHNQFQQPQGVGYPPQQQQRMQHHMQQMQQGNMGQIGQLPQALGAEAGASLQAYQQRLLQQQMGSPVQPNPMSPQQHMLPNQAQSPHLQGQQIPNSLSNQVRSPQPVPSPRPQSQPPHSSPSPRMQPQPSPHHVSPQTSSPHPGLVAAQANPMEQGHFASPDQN
Briefly: GST pull-down with [35S]-labelled in vitro translated Bridge-1.

Experiment [6] has as its target T3, p300 (full-length histone acetyltransferase and nuclear receptor coactivator) (UniProt Q09472 2-2414, limits assumed, [35S]-methionine labelled in the pull-down assays).
T3 construct: mature; In vitro translated in rabbit reticulocyte lysate for the pull-downs; Expressed from pCMV-p300 in BHK cells for the reporter assay; also called [35S]-p300; radiolabeled in vitro translated full-length p300
Nature of the experiment: GST pull-down with [35S]-labelled in vitro translated p300.

T3 sequence (Q09472 2-2414 limits assumed): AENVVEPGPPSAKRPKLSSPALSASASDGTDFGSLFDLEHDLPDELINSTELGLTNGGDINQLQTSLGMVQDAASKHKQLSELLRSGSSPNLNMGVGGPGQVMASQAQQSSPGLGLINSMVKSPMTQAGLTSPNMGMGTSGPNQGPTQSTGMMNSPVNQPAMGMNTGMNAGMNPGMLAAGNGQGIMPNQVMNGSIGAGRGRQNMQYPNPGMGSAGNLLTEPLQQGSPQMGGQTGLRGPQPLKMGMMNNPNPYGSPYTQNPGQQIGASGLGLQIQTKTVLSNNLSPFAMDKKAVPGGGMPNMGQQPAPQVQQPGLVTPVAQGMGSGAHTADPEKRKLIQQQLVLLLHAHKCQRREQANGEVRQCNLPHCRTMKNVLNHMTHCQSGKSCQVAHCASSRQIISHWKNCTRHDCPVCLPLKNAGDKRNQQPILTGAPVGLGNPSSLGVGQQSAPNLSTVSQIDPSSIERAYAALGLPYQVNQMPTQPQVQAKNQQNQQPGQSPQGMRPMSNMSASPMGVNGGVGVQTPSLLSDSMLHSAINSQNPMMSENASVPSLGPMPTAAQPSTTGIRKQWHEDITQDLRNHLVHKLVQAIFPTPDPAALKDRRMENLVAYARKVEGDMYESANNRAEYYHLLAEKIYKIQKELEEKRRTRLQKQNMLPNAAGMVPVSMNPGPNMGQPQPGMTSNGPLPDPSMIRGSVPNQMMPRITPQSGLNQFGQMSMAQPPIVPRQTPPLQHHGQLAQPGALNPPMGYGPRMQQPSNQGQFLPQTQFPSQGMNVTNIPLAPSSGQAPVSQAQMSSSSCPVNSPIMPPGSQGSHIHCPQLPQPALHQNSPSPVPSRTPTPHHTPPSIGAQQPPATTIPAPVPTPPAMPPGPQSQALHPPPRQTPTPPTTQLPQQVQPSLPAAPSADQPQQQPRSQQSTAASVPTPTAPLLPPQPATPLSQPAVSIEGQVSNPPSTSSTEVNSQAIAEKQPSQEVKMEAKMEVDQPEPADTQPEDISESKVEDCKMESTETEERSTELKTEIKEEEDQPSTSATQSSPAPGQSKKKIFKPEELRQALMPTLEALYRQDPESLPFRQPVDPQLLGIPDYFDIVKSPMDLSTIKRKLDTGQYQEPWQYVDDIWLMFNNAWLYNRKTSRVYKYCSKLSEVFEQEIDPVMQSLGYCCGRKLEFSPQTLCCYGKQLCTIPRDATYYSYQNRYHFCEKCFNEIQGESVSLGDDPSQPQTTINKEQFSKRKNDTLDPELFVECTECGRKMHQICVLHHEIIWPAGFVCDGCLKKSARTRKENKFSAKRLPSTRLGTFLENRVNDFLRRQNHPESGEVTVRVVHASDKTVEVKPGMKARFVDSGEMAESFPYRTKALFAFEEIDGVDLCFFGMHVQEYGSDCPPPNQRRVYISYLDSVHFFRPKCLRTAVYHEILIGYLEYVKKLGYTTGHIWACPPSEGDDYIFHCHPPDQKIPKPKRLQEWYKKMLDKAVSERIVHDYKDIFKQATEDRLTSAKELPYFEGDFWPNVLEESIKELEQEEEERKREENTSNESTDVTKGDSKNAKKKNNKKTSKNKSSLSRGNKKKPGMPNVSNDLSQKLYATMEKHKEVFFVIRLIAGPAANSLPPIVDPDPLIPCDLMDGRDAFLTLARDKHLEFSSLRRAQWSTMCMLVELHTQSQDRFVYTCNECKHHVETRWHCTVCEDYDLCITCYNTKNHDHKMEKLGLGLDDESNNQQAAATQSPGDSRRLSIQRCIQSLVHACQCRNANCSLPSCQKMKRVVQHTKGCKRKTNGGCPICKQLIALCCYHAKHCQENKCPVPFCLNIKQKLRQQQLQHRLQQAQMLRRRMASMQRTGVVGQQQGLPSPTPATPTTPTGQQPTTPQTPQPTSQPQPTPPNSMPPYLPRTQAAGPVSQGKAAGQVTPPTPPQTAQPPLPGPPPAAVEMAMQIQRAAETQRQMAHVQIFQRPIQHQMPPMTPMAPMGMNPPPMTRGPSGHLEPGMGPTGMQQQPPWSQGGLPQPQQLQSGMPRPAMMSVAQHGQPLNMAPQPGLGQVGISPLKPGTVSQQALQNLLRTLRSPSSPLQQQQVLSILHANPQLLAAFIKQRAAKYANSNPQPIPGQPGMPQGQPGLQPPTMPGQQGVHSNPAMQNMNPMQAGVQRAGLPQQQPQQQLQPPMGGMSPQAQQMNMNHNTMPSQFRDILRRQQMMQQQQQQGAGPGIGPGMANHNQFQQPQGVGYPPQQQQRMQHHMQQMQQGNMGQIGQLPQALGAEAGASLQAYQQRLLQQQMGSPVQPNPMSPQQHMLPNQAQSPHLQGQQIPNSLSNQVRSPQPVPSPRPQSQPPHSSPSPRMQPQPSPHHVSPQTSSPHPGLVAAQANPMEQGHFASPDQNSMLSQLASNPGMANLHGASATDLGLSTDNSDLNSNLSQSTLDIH
Sequence of p300 (full-length histone acetyltransferase and nuclear receptor coactivator) (UniProt Q09472) (Q09472 2-2414 limits assumed): as above
T1 sequence (P52947 160-283 limits assumed): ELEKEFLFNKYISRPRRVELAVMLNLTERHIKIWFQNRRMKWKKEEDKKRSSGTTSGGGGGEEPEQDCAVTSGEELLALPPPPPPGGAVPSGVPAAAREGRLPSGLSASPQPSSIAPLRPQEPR
Sequence of human PDX-1/IPF-1 mutant P63fsdelC, [35S]-radiolabeled in vitro translated (human) (P52945 1-62, stated change not applied): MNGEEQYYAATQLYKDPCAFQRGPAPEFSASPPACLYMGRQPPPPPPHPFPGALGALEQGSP

In the case of “GST-Bridge-1 (glutathione-S-transferase fused to full-length rat Bridge-1) (from UniProt P08515 1-218)”, in experiment [1], the fold stronger interaction as compared to the wild-type PDX-1 protein was more than 2 fold.
For “Gal4-Bridge-1 (Gal4 DNA-binding domain fused to full-length rat Bridge-1) (from UniProt P04386 1-147)”, the activation of a Gal4-CAT reporter in transfected BHK cells is more than 70 fold in experiment [2] and 76 fold in experiment [3].

B1: rat inhibitor of differentiation-3 (Id3) (yeast interaction trap control protein) (other, UniProt P41138 1-119, looked up)
chain: MKALSPVRGCYEAVCCLSERSLAIARGRGKSPSAEEPLSLLDDMNHCYSRLRELVPGVPRGTQLSQVEILQRVIDYILDLQVVLAEPAPGPPDGPHLPIQTAELTPELVISKDKRSFCH
notes: Control protein tested against the PDX-1 bait
As to B1, the binding result in experiment [4] was “no binding”.

B2: rat Bridge-1 (full-length, 1-222) (other)
chain: MSSEEVRHRAESSEARAAAVSDIQELMRRKEEIEAQIKANYDVLESQKGIGMNEPLVDCEGYPRADVDLYQVRTARHNIICLQNDHKALMKQVEEALHQLHARDKEKQARDMAEAREEAMNRRLASDSPALPKAFARVNSISPGSPASIAGLQVDDEIVEFGSVNTQNFQSLQNVGTVVQHSEGKPLNVMVIRRGEKHQLRLTPTRWAGKGLLGCNITPLQR
modifications: [35S]-methionine labelled in the pull-down assays
notes: In vitro translated from pcDNA3-Bridge-1 in rabbit reticulocyte lysate for the pull-downs; Expressed from the same vector in BHK and HeLa cells for the reporter assays; also called [35S]-Bridge-1; radiolabeled in vitro translated Bridge-1
With B2, the binding result in experiment [5] is recorded as “no binding”.

B3: GST-Bridge-1 (D156P) (other)
chain: MSSEEVRHRAESSEARAAAVSDIQELMRRKEEIEAQIKANYDVLESQKGIGMNEPLVDCEGYPRADVDLYQVRTARHNIICLQNDHKALMKQVEEALHQLHARDKEKQARDMAEAREEAMNRRLASDSPALPKAFARVNSISPGSPASIAGLQVDPEIVEFGSVNTQNFQSLQNVGTVVQHSEGKPLNVMVIRRGEKHQLRLTPTRWAGKGLLGCNITPLQR
notes: also called mutant GST-Bridge-1 fusion protein D156P; not shown: N-terminal glutathione-S-transferase carrier encoded by pGEX-5X-1, plus the short vector-derived linker
In the case of B3, the binding result in experiment [6] was “no binding”.

The record behind these values is US20090138978A1 (GENERAL HOSPITAL, published 2009).
